Test results taken from patent US10800813 (Bicycle, dated 2020).
Where two headings read alike, the source gives them in different places. Numbered stars: 1 amine (or outer) side, 2 acyl side, 3 side chain; on linkers, the order of the positions; unused ones are H or OH. Bridge positions count the residues as written; N and C are the ends. Square brackets hold non-standard residues; d marks the D form. Ends that are not written are not given here. Phe(4-guanidino) = N=C(N)Nc1ccc(C[C@H](N)C(=O)O)cc1; TBMB = c1c(C[*:1])cc(C[*:3])cc1C[*:2]; NMeR = CN[C@@H](CCCNC(=N)N)C(=O)O; hArg = N=C(N)NCCCC[C@H](N)C(=O)O

Experiments:
Human factor XIa = target: T1, Human factor XIa (human, UniProt P03951 19-625); test: enzyme inhibition assay
T1 construct: also called hfXIa

Monkey plasma Kallikrein = target: T2, Monkey plasma Kallikrein (monkey (Macaca mulatta), UniProt A0A1D5Q7U7 391-638); test: enzyme inhibition assay
T2 construct: domain: catalytic domain; also called mPK
T2 sequence (A0A1D5Q7U7 entry or part of it): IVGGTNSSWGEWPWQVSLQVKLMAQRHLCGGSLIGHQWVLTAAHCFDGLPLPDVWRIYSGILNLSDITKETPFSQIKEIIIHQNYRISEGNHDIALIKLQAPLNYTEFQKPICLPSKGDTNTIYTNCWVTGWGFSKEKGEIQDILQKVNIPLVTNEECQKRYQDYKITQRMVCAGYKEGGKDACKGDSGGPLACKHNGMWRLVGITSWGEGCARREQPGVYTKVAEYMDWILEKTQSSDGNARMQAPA

human plasma Kallikrein [1] = target: T3, human plasma Kallikrein (human, UniProt P03952 20-638, limits assumed); test: enzyme inhibition assay
T3 construct: also called hPK; human PK
T3 sequence (P03952 20-638 limits assumed): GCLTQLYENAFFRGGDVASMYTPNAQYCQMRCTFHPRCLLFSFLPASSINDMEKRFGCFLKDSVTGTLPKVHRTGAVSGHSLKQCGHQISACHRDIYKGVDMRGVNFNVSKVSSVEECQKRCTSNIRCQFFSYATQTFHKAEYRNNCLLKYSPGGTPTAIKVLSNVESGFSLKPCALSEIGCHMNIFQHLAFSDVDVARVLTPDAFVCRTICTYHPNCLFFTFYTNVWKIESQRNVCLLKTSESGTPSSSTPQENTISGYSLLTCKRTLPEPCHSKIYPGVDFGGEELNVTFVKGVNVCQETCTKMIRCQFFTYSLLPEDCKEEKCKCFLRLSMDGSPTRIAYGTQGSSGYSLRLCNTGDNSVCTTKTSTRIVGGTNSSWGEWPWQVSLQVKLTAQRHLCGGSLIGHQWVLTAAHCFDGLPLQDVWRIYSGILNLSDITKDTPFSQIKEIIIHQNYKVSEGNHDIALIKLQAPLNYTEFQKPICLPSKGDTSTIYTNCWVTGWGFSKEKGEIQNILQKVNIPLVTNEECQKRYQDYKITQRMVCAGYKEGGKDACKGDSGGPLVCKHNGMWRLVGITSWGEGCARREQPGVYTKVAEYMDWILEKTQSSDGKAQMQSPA

Rat plasma Kallikrein [2] = target: T4, Rat plasma Kallikrein (rat, UniProt P14272 391-638, limits assumed); test: enzyme inhibition assay
T4 construct: domain: catalytic domain; also called rPK; rat PK
T4 sequence (P14272 391-638 limits assumed): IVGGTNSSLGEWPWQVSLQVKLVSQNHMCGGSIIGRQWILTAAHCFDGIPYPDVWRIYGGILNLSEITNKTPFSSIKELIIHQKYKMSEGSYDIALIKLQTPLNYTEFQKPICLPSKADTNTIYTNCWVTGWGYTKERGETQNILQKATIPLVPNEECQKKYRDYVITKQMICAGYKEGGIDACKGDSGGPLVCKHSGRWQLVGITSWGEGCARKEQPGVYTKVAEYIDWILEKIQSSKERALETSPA

Rat plasma Kallikrein [3] = target: T4, Rat plasma Kallikrein; test: enzyme inhibition assay; values relative, not absolute
human plasma Kallikrein [4] = target: T3, human plasma Kallikrein; test: enzyme inhibition assay; remark: listed apart in the source
human plasma Kallikrein [5] = target: T3, human plasma Kallikrein; test: enzyme inhibition assay; remark: listed apart in the source
human plasma Kallikrein [6] = target: T3, human plasma Kallikrein; test: enzyme inhibition assay; remark: listed apart in the source
human plasma Kallikrein [7] = target: T3, human plasma Kallikrein; test: enzyme inhibition assay; remark: listed apart in the source
Human plasmin = Human plasmin (human, UniProt P00747 97-810); test: enzyme inhibition assay
Sequence of Human plasmin (P00747 97-810 limits assumed): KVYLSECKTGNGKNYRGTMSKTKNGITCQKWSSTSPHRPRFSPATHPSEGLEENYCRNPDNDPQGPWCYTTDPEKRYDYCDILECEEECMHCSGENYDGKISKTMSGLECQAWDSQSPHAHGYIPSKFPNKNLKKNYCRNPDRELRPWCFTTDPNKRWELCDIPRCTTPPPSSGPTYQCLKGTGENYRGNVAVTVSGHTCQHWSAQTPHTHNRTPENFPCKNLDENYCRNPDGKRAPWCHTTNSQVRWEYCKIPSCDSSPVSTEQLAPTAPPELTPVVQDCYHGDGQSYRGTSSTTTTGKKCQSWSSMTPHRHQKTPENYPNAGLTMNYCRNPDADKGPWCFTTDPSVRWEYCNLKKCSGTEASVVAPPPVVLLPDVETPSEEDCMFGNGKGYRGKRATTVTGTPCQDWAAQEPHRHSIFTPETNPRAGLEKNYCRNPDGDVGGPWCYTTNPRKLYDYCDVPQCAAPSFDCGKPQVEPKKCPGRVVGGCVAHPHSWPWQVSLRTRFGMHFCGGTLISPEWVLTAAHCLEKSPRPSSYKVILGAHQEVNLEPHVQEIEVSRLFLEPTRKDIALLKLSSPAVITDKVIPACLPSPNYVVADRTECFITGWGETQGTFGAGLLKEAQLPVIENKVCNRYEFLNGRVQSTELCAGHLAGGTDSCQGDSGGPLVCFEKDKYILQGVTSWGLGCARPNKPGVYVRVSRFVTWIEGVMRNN

human plasma Kallikrein [8] = target: T3, human plasma Kallikrein; test: enzyme inhibition assay; remark: listed apart in the source

Binder | Ki (Human factor XIa) | Ki (Monkey plasma Kallikrein) | Ki (human plasma Kallikrein [1]) | Ki (Rat plasma Kallikrein [2]) | IC50 (Rat plasma Kallikrein [3]) | Ki (human plasma Kallikrein [6]) | also measured
H-ACSDRFRNCPADEALCG-NH2 (linker 2-9-16 via TBMB, 6x6 bicyclic peptide) [PK15] | 75 µM | 0.004 µM | 0.003 µM | 0.941 µM | – | – | –
Ac-CSFPYRCLHQDLC-NH2 (linker 1-7-13 via TBMB; SMILES CC(=O)N[C@H]1CSCc2cc3cc(c2)CSC[C@H](NC(=O)[C@H](CCCNC(=N)N)NC(=O)[C@H](Cc2ccc(O)cc2)NC(=O)[C@@H]2CCCN2C(=O)[C@H](Cc2ccccc2)NC(=O)[C@H](CO)NC1=O)C(=O)N[C@@H](CC(C)C)C(=O)N[C@@H](Cc1c[nH]cn1)C(=O)N[C@@H](CCC(N)=O)C(=O)N[C@@H](CC(=O)O)C(=O)N[C@@H](CC(C)C)C(=O)N[C@H](C(N)=O)CSC3, also called Ac-(06-34-18) FPYR; Ac-(06-34-18) Phe2 Tyr4) [Ac-06-34-18(TMB)-NH2 Phe2Tyr4] | – | – | – | – | 0.0138 µM | 0.00046 µM | Ki (human plasma Kallikrein [4]): 0.00046 µM; Ki (human plasma Kallikrein [5]): 0.00046 µM
Ac-CSFPY[Phe(4-guanidino)]CLHQDLC-NH2 (linker 1-7-13 via TBMB; SMILES CC(=O)N[C@H]1CSCc2cc3cc(c2)CSC[C@H](NC(=O)[C@H](Cc2ccc(NC(=N)N)cc2)NC(=O)[C@H](Cc2ccc(O)cc2)NC(=O)[C@@H]2CCCN2C(=O)[C@H](Cc2ccccc2)NC(=O)[C@H](CO)NC1=O)C(=O)N[C@@H](CC(C)C)C(=O)N[C@@H](Cc1c[nH]cn1)C(=O)N[C@@H](CCC(N)=O)C(=O)N[C@@H](CC(=O)O)C(=O)N[C@@H](CC(C)C)C(=O)N[C@H](C(N)=O)CSC3) [Ac-(06-34-18) Phe2 Tyr4 4GuanPhe5] | – | – | – | – | 0.0025 µM | 0.0004 µM | –
Ac-CSFPY[hArg]CLHQDLC-NH2 (linker 1-7-13 via TBMB; SMILES CC(=O)N[C@H]1CSCc2cc3cc(c2)CSC[C@H](NC(=O)[C@H](CCCCNC(=N)N)NC(=O)[C@H](Cc2ccc(O)cc2)NC(=O)[C@@H]2CCCN2C(=O)[C@H](Cc2ccccc2)NC(=O)[C@H](CO)NC1=O)C(=O)N[C@@H](CC(C)C)C(=O)N[C@@H](Cc1c[nH]cn1)C(=O)N[C@@H](CCC(N)=O)C(=O)N[C@@H](CC(=O)O)C(=O)N[C@@H](CC(C)C)C(=O)N[C@H](C(N)=O)CSC3) [Ac-(06-34-18) Phe2 Tyr4 HomoArg5] | – | – | – | – | 0.0197 µM | 0.00077 µM | –
Ac-CSFPY[NMeR]CLHQDLC-NH2 (linker 1-7-13 via TBMB; SMILES CC(=O)N[C@H]1CSCc2cc3cc(c2)CSC[C@H](NC(=O)[C@H](CCCNC(=N)N)N(C)C(=O)[C@H](Cc2ccc(O)cc2)NC(=O)[C@@H]2CCCN2C(=O)[C@H](Cc2ccccc2)NC(=O)[C@H](CO)NC1=O)C(=O)N[C@@H](CC(C)C)C(=O)N[C@@H](Cc1c[nH]cn1)C(=O)N[C@@H](CCC(N)=O)C(=O)N[C@@H](CC(=O)O)C(=O)N[C@@H](CC(C)C)C(=O)N[C@H](C(N)=O)CSC3) [Ac-(06-34-18) Phe2 Tyr4 NMeArg5] | – | – | – | – | 0.0602 µM | 0.00356 µM | –
ACTYPYKCLHQNLCA (linker 2-8-14 via TBMB, also called PK112) [2A10] | – | 0.023 µM | 0.018 µM | 0.066 µM | – | – | Ki (human plasma Kallikrein [7]): 0.00498 µM; Ki (Human plasmin): 30 µM
ACFKACRVNCA (linker 2-6-10 via TBMB, also called PK117) [3B3] | 0.057 µM | 0.011 µM | – | 0.024 µM | – | – | –
ACFKHCRVACA (linker 2-6-10 via TBMB, also called PK123) [3B8] | 0.052 µM | 0.009 µM | 0.007 µM | 0.012 µM | – | – | Ki (human plasma Kallikrein [8]): 0.00095 µM
